What was measured:
[1] = target: T1, recombinant VEGF (vascular endothelial cell growth factor) (UniProt P15692-4 27-191, limits assumed); assay: ELISA, VEGF coated on plate, anti-human Ig-HRP detection
T1 construct: also called recombinant VEGF proteins (Chemicom)
Experimental: Affinities of the chimeric proteins to VEGF were determined by the VEGF binding assay in the present invention. Firstly, recombinant VEGF proteins (Chemicom) were coated in a 96-well ELISA plate, and non-specific protein binding sites of the plate were then blocked using 5% milk solution. Secondly, different concentrations of various chimeric proteins were added into each well, and incubated for 2 hours at 37° C. After washing, rabbit anti-human Ig-HRP (Sigma) was added into each well, and finally colorimetric enzyme substrates were added to the plate. The absorption OD readings were recorded with the use of an ELISA plate reader. A higher OD value indicated a stronger binding affinity of the chimeric proteins to VEGF.

[2] = target: T1, recombinant VEGF (vascular endothelial …); assay: cell-based or functional assay

T1 sequence (P15692 other isoform, or with tags, fused parts or gaps limits assumed): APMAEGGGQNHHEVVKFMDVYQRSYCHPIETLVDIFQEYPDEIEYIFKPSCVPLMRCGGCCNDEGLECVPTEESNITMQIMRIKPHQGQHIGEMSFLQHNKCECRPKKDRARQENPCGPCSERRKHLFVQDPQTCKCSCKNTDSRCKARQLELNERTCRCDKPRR

concentration at which binding was detectable [1] [µg/mL]	IC50 of inhibition of VEGF-induced HUVEC cell growth [2] [ng/mL]	Binder
1	5 to 8	FP4′ (FLTd2-KDRd3-FLTd4-Fc) (Fc fusion, not shown: a dimerising Fc or GST, Expressed in 293 cells) PFVEMYSEIPEIIHMTEGRELVIPCRVTSPNITVTLKKFPLDTLIPDGKRIIWDSRKGFIISNATYKEIGLLTCEATVNGHLYKTNYLTHRQTVVLSPSHGIELSVGEKLVLNCTARTELNVGIDFNWEYPSSKHQHKKLVNRDLKTQSGSEMKKFLSTLTIDGVTRSDQGLYTCAASSGLMTKKNSTFVRVHEKFITVKHRKQQVLETVAGKRSYRLSMKVKAFPSPEVVWLKDGLPATEKSARYLTRGYSLIIKDVTEEDAGNYTILLSIKQSNVFKNLTATLIVNVKP
1	5 to 8	FP2′ (KDRd1-FLTd2-KDRd3-Fc) (Fc fusion, not shown: a dimerising Fc or GST, Expressed in 293 cells) PRLSIQKDILTIKANTTLQITCRGQRDLDWLWPNNQSGSEQRVEVTECSDGLFCKTLTIPKVIGNDTGAYKCFYRETDLASVIYVYPFVEMYSEIPEIIHMTEGRELVIPCRVTSPNITVTLKKFPLDTLIPDGKRIIWDSRKGFIISNATYKEIGLLTCEATVNGHLYKTNYLTHRQTVVLSPSHGIELSVGEKLVLNCTARTELNVGIDFNWEYPSSKHQHKKLVNRDLKTQSGSEMKKFLSTLTIDGVTRSDQGLYTCAASSGLMTKKNSTFVRVHEK
1	5 to 8	FP5′ (FLTd2-KDRd3,4,5-Fc) (Fc fusion, human, not shown: a dimerising Fc or GST, domain: 5th Ig-like domain of KDR; Expressed in 293 cells) PFVEMYSEIPEIIHMTEGRELVIPCRVTSPNITVTLKKFPLDTLIPDGKRIIWDSRKGFIISNATYKEIGLLTCEATVNGHLYKTNYLTHRQTVVLSPSHGIELSVGEKLVLNCTARTELNVGIDFNWEYPSSKHQHKKLVNRDLKTQSGSEMKKFLSTLTIDGVTRSDQGLYTCAASSGLMTKKNSTFVRVHEKFVAFGSGMESLVEATVGERVRIPAKYLGYPPPEIKWYKNGIPLESNHTIKAGHVLTIMEVSERDTGNYTVILTNPIKSEKQSHVVSLVVYVPPQIGEKSLISPVDSYQYGTTQTLTCTVYAIPPPHHIHWYWQLEEECANEPSQAVSVTNPYPCEEWRSVEDFQGGNKIEVNKNQFALIEGKNKTVSTLVIQAANVSALYKCEAVNKVGRGERVISFHVT
1	5 to 8	FP6′ (FLTd2-KDRd3-FLTd4,5-Fc) (Fc fusion, human, not shown: a dimerising Fc or GST, domain: 5th Ig-like domain of FLT-1; Expressed in 293 cells; also called PF6′) PFVEMYSEIPEIIHMTEGRELVIPCRVTSPNITVTLKKFPLDTLIPDGKRIIWDSRKGFIISNATYKEIGLLTCEATVNGHLYKTNYLTHRQTVVLSPSHGIELSVGEKLVLNCTARTELNVGIDFNWEYPSSKHQHKKLVNRDLKTQSGSEMKKFLSTLTIDGVTRSDQGLYTCAASSGLMTKKNSTFVRVHEKFITVKHRKQQVLETVAGKRSYRLSMKVKAFPSPEVVWLKDGLPATEKSARYLTRGYSLIIKDVTEEDAGNYTILLSIKQSNVFKNLTATLIVNVKPQIYEKAVSSFPDPALYPLGSRQILTCTAYGIPQPTIKWFWHPCNHNHSEARCDFCSNNEESFILDADSNMGNRIESITQRMAIIEGKNKMASTLVVADSRISGIYICIASNKVGTVGRNISFYIT
–	~12	FP1′ (FLTd2-KDRd3-Fc), chimeric protein of the prior art (Fc fusion, not shown: a dimerising Fc or GST) PFVEMYSEIPEIIHMTEGRELVIPCRVTSPNITVTLKKFPLDTLIPDGKRIIWDSRKGFIISNATYKEIGLLTCEATVNGHLYKTNYLTHRQTVVLSPSHGIELSVGEKLVLNCTARTELNVGIDFNWEYPSSKHQHKKLVNRDLKTQSGSEMKKFLSTLTIDGVTRSDQGLYTCAASSGLMTKKNSTFVRVHEK
